Biological target: T1, focal adhesion kinase (FAK) (UniProt Q05397 2-1052)
T1 construct: Endogenous protein in lysates of SNU449 cell lines
Test: physical association in SNU449 cell lysates with or without tiarellic acid (FIG. 10; method not described)

T1 sequence (Q05397 2-1052 limits assumed): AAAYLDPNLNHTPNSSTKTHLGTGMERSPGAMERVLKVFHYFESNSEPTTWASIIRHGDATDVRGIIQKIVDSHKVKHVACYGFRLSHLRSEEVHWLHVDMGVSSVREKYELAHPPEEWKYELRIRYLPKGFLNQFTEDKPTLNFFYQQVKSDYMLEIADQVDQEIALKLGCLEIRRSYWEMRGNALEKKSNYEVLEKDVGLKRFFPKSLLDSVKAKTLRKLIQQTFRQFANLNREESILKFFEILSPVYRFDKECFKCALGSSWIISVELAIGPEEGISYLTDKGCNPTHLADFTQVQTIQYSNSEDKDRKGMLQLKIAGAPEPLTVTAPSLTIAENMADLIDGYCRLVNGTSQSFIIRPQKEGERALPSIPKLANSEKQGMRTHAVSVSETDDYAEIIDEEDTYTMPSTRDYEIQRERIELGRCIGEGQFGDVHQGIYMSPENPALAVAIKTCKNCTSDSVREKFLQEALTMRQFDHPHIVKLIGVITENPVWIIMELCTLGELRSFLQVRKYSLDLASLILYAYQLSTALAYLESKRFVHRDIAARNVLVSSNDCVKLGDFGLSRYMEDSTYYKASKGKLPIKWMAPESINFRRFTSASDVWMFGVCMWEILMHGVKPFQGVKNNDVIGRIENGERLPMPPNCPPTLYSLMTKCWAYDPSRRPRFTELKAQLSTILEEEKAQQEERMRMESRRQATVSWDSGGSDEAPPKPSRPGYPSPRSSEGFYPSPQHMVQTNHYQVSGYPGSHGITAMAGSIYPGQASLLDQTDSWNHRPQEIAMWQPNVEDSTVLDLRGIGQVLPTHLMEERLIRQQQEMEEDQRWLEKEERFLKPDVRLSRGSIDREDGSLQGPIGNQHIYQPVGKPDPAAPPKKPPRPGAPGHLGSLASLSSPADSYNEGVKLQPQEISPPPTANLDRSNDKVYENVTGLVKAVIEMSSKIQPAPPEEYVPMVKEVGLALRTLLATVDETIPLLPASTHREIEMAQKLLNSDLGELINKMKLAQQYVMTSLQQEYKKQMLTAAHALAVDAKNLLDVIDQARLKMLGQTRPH

binding result: binds
B1: p130Cas (other, UniProt P56945 1-870, looked up)
chain: MNHLNVLAKALYDNVAESPDELSFRKGDIMTVLEQDTQGLDGWWLCSLHGRQGIVPGNRLKILVGMYDKKPAGPGPGPPATPAQPQPGLHAPAPPASQYTPMLPNTYQPQPDSVYLVPTPSKAQQGLYQVPGPSPQFQSPPAKQTSTFSKQTPHHPFPSPATDLYQVPPGPGGPAQDIYQVPPSAGMGHDIYQVPPSMDTRSWEGTKPPAKVVVPTRVGQGYVYEAAQPEQDEYDIPRHLLAPGPQDIYDVPPVRGLLPSQYGQEVYDTPPMAVKGPNGRDPLLEVYDVPPSVEKGLPPSNHHAVYDVPPSVSKDVPDGPLLREETYDVPPAFAKAKPFDPARTPLVLAAPPPDSPPAEDVYDVPPPAPDLYDVPPGLRRPGPGTLYDVPRERVLPPEVADGGVVDSGVYAVPPPAEREAPAEGKRLSASSTGSTRSSQSASSLEVAGPGREPLELEVAVEALARLQQGVSATVAHLLDLAGSAGATGSWRSPSEPQEPLVQDLQAAVAAVQSAVHELLEFARSAVGNAAHTSDRALHAKLSRQLQKMEDVHQTLVAHGQALDAGRGGSGATLEDLDRLVACSRAVPEDAKQLASFLHGNASLLFRRTKATAPGPEGGGTLHPNPTDKTSSIQSRPLPSPPKFTSQDSPDGQYENSEGGWMEDYDYVHLQGKEEFEKTQKELLEKGSITRQGKSQLELQQLKQFERLEQEVSRPIDHDLANWTPAQPLAPGRTGGLGPSDRQLLLFYLEQCEANLTTLTNAVDAFFTAVATNQPPKIFVAHSKFVILSAHKLVFIGDTLSRQAKAADVRSQVTHYSNLLCDLLRGIVATTKAAALQYPSPSAAQDMVERVKELGHSTQQFRRVLGQLAAA
notes: Endogenous protein in lysates of SNU449 cell lines
